Reference: the nanobody polyreactivity screen of Harvey et al. (2022)

Assay: yeast display, Sf9 membrane polyspecificity reagent, FACS + sequencing; frameworks hold sequencing errors
In short: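 Sorting gates, low and high (top ~1%), were placed on anti-HA fluorescence to track expression and on streptavidin fluorescence to track reagent binding. A clone's polyreactivity label is taken from the gate it came out of. The reagent was 10% biotinylated, detergent-solubilized Sf9 membrane, applied for 1 hour at 4 °C to galactose-induced yeast display cells.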

Sequence | polyreactivity (PSR sort gate)
QVQLVESGGGLVQAVGSLRLSCAASGFTFRGYDMRSYRQAPGKQRELVAGITWGDDSTYYADSVKRRFTISRDKAKNTGYLQMNILKPEDTAVYYCAAEYVFHDVLWWIYGYWRQGTQVTVSS | high polyreactivity
QVQLVESGGGLVQAGGSLRLSCAASGSTFSTNAMGWYRQAPGKESELVASITRSGGSTYYADSVKGRFTISRDNAKNTVYLQMNSLKPEDTAVYYCNADGYYDYDYGYWGQGTQVTVSS | low polyreactivity
QVQLVESGGGLVQAGGSLRLSCAASGLTFDYYAMGWYRQAPGKERELVAAITRRGGGTYYADSVKGRFTISRDNAKNTVYLQMNSLKPEDTAVYYCNADRRSWSALHRYDYWGQGTQVTVSS | high polyreactivity
QVQLVESGGGLVQAGGSLRLSCAASGSTFIGYDMGWFRQAPGTERELVAAISYSDGTYYADSVKGRFTISRDNAKNTVYLQMNSLKPEDTAVYYCAADSLYYRYDYWGQGTQVTVSS | low polyreactivity
QVQLVESGGGLVQAGGSLRLSCAASGITFVDNAMGWYRQAPGKERELVAAISFSGDTTYYADSVKGRFTISRDNEKNTVYLQMNSLKPEDTAVYYCAAEYYYTWVYQYWEMDYWGQGTQVTVSS | low polyreactivity
QVQLVESGGGLVQAGGSLRLISAASGSIFPAYDMGLYRQAPGKEREFLPAIERGGSTYYADSVKGRYTISRDNAKNTVYLPMNSLKPVDTAVFYCATDCPEYPNYISSAGFDYWGQGTQVNVSS | low polyreactivity
QVQLVESGGGLVQAGGSLRLSCAASGSIFSQNAIGWYRQAPGKEMELVAAISSSGTRTYYADSVKGRFTISRDHAKNTVYLQMNSLKPEDTAVYYCNKVLFRPRFFVRSDYWGQGTQVSVSS | high polyreactivity
QVQLVESGGGLVQAGGSLRLICAASGSTFTGYAMGWYRQAPGKERELVAGITGSGGSTYYADSVKGRFTISRDNAKNTVYLQMNSLKPEDTAVYYCAAELYDYGDLYYSEYDYWGQGTQVTVSS | low polyreactivity
QVQLVESGGGLVQAGGSIRLTCAASGRIYEIYTMGWYRQATGKETEFVAGITWSGGSTYYADSVKGRFTISRDNAKNTFYLQMNSLKPEDTAVYYCATDEVYWTGYAPSLFDYWGQGTQVTVSS | low polyreactivity
QVQLVESGGGLVQAGGSLRLSCAASGRIFVNYAMGWYRQAPVKERELVATITWSGGSTFYADSVKGRFTISRDNAKNTVYLQMNSLKPEDTAVYYCAQRGYVRSGLGRPYADDYWGQGTQLTVSS | low polyreactivity
QVQLVESGGGLVQAGGSLRLSCAASGNIFLYYAMGWYRQAPGKERELDADIDSSGASTYYADSVKGRFTISRDNAKNNVYLQMNSLKPEDTAVYYCAAEFHWWYAGYDYGYWGQGTQVTVSS | low polyreactivity
QVQLEESGGGLVQAGGSLRLSCAASGFIFFAYAMGWYRQAPGKERELVAAISRTGGSTYYADSVKGRFTISRDNAKNTVYLLMNSLKPEDTAVYYCAAVVSRTYQWWTYDYWGQGTQVTVSS | high polyreactivity
QVQLVESGGRLVQAGGSLRISSAASGFIFYKYTMGWYRQAPGKERELVAAITRSGGSTYYADSVKGRCTISRDNAKNTVYLQMNSLKPEDTAVYYCAATQSFRRNYDYWGQGTQVTVSS | high polyreactivity
QVHLVESGGVLVQAGCSLRLSCSASGSTFDFNAMGWYRQAPGKERELVAAITSGDSTNYADSVQGRFTISRDNAKNTVYLQMNSLKPEDTAVYYCAARYYWKYITSAARRAGSDYWGQGTQVTVSS | low polyreactivity
QVQLVESGGGLVQAGGSLRLSCAASGSIFRGNAMGWYRQAPVKERELVAGINRAGSTKYADSVKGRFTISRDNAKNTVYLQMNSLKPEDTAVYYCAAVRYERGLWSDYWGQGTQVTVSS | high polyreactivity
QVQLVESGGGLVQAGGSLRLSCAASGIFGWNTMGWYRQAPGTERELVATISWGGGTTYYADSVKGRFTISRDNAKNTVYLQMNSLKPEDTAVYYCAKVYAVRIGLRYYYWGQGTQVTVSS | low polyreactivity

Sequence | polyreactivity (PSR sort gate)
QVQLVESGAGLVQAGGSLRLSCAASGRIFTKYAMGLYRQAPGKERELVAAISGSGGNTYYADSLKGRFTISRDNAKNTVYLQMNSLKPEDTAVYYCNRAKNAYLMDFWGQVTQVTVSS | high polyreactivity
QVQLVESGGGLVQAGGSLRLSCAASGRIFQGYAMGWYRQAPGKERELLAAITVRCGTTYYADSVKGRFTISRDNAKNTVYLQMNSLKPEDTAVYYCNAAKLIHGYQSVYPGSNSRYYYWGQGTQVTVSS | low polyreactivity
QVQLVESGGGLVQAGGTLRLSCAASGSTFPRNTMGWYRHEPGKERELVAAISSSGVRTYYADSVKGRFTISRDNAKNTVYLQMNSLKAEDTAVYYCAAGSQSRDYYYWGQGTLVTVSS | high polyreactivity
QVQLVESGGGLVQAGGSLRLSCAASGTMGWYRQAPGKERELVAAISQSGGSTYYADSVKGRFTISRDNAKNTVYLQMNSLKPEDTAVYYCAVDPRYGHPRRDYWGQGTQVTVSS | low polyreactivity
QVQLVESGGGLVQAGGSLRLSCAASGSIFAWYAMGWYRQAPGKERELVATITWSGGSTYYADSVKGRFTISRDNAKNTVYLQMNSLKPEDTAVYYCAAEVVGIWYDLWYQGDYWGQGTQVTVSS | low polyreactivity
QVQLEESGGGLVQEGGSLRLSCAASGSIFTQNARGWNRQAPGKERELVAAITISGGGTYYADSVKGRFTISRDNAKNTVYFQMNSQKPEDTAVYHCAAAGRARYYYRYGYWGQVTQVTVSS | low polyreactivity
QVHLVQTGGGLVQAGGSLRLSCAASGRIFRTNGMGWYRQAPGKERELVAAISSGDSTYYADSVKVRFTISRDNAKNTVYLQMNSLKPEDTAVYYCAADFGRKGGPGYDYWGQGTQVTVSS | low polyreactivity
QVQLVESGGGLVQAGGSLRLSCAASGRTFDPYAMGWYIQAPGKERELVAAITSGDDTYYADSVKGRFTISRDNAKNTVYLQMNSLKPEDTAVYYCAADSFTPDYYSHDYWGQGTQVTVSS | low polyreactivity
QVQLVESGGGIVQAGGSLRLSCAASGSTFYRYAMGWYRQAPGKERELVATITNSGGSTYYADSVKGRFTISRDNAKNTVYLQMNSLKPEDTAVYYCARVRSRNTGYYYWGQGTQVTVSS | high polyreactivity
QVQLVESGGGLVQAGGSLRLSCAASGSTFRRNAMGWYRQAPGKERELVAAISRTAGSTYYADSVKGRFTISRDNAKNTVYLQMNSLKPEDTAVYYCNRRYVSTSGELDYWGQGTQVTVSS | high polyreactivity
QVQLVESGGGLVQAGGSLRLSCAASGFTLFANVMGWYRQAPGKERELVAAISWRSGNTYYADSVKGRFTISRDNAKNTVYLQMNSLKPEDTAVYYCAADTTGDQHSWGTSGIIEGDYWGQGTQVTVSS | low polyreactivity
QVQLVESGGGLVQAGGSLRLSCAASGSTFTGYAMGWYRQAPGKERELVAGITGSGGSTYYADSVKGRFTISRDNATNTVYLQMNSLKPEDTAVFYCAAAFWYQYVWLDYYWGQGTQVTVSS | low polyreactivity
QVQLVESGGGLVQAGGSLSLSCAASGSTFGYYARGWYRQAPGKERELVATITIGGYTHYADSVKGRFTISRDNAKNTVYLQMNSLKPEDTAFYYCAKRYYTNRHSRAFGYWGQGTQVTVSS | high polyreactivity
QVQLVESVGGLDQAGGSLRFICASSAHTISSYAMGWYRQAPGKERELVAAISVSATRTYYADSVKGRFTISRDNAKNTVYLQMSSLNPEDPAVYYFAARPVQFTYGYWGQGTQVTVSS | high polyreactivity
QVQLVESGGGLVQAGGSLRLSCAATGIFVVYAMGWYREAPGKERELVAAIRSDASTNYADSVKGRFTISRDNAKNTVYLQMNILKPEDTAVYYCNTAQLVSDEFDYWGQGTQVTVSS | low polyreactivity
